# Target: light chain of the anti-IL8 IgG1 mAb of the CHO DP-12 cell line
# Assay: SEC + native MS
substance,measurement,value
light chain of the anti-IL8 IgG1 mAb of the CHO DP-12 cell line (antibody),stoichiometry N,2

# — publication doi:10.1101/2020.11.04.368480
